Results published in US20130115677.
Positions count from the first letter of the chain named.

Assays:
Assay in all cases: cleavage_in_vitro
[1] = target: T1, SalI-HF R107A (Streptomyces albus G) (UniProt Q53608); settings: NEB4, 37 C, Mg2+
T1 sequence: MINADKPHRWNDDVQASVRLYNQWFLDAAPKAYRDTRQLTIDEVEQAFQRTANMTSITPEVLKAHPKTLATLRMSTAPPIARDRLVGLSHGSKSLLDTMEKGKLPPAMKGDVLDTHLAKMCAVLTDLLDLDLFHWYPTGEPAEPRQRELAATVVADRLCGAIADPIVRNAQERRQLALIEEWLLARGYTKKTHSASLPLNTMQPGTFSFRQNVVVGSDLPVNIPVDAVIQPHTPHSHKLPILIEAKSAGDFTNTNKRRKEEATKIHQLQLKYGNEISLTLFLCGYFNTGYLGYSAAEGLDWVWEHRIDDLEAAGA

[2] = target: T2, SalI (Streptomyces albus G) (UniProt Q53608); settings: NEB4, 37 C, Mg2+
T2 sequence: T1 sequence with A107R

[3] = system: T3, AvrII (Anabaena variabilis); settings: NEB4, 37 C, Mg2+
T3 sequence: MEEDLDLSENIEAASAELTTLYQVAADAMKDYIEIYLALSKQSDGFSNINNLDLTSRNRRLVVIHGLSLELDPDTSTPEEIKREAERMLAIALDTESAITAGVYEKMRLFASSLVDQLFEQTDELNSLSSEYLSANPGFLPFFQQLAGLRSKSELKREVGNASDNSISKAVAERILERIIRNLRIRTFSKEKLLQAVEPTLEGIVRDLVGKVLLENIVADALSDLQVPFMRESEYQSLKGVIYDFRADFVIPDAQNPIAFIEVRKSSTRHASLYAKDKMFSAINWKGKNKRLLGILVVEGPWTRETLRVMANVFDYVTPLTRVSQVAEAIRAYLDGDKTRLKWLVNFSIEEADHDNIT

[4] = system: T4, AvrII-HF Y104F (Anabaena variabilis); settings: NEB4, 37 C, Mg2+
T4 sequence: T3 sequence with Y104F

[5] = system: T5, BspQI-HF K279P/R388F (Bacillus sphaericus); settings: NEB4, 50 C, Mg2+
T5 sequence: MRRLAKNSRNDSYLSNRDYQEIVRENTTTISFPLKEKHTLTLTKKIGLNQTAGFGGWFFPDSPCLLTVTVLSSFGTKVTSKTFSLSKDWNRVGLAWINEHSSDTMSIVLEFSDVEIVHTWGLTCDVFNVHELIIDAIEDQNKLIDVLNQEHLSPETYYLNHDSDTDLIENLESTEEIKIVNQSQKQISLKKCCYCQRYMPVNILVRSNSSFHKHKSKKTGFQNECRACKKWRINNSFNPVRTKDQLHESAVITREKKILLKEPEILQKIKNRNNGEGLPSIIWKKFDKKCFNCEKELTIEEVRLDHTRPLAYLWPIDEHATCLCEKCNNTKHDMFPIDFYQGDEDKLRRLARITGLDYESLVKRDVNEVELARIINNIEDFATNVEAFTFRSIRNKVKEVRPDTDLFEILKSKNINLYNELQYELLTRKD

[6] = target: T6, PvuII-HF T46G (Proteus vulgaris) (UniProt P23657); settings: NEB4, 37 C, Mg2+
T6 sequence: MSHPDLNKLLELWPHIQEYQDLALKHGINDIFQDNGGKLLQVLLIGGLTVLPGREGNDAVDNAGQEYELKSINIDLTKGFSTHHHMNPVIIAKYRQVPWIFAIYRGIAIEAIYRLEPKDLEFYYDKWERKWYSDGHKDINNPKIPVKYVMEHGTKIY

lambda DNA HindIII digest
activity (fidelity index) [1]: > 32000 | activity (fidelity index) [2]: 1

T7 DNA
activity (fidelity index) [3]: 32 | activity (fidelity index) [4]: > 1000

pUC19
activity (fidelity index) [5]: > 4000

pBR322
activity (fidelity index) [6]: 500
